Experimental data published in patent US20240197906A1, “ANTI-cMET ANTIBODY DRUG CONJUGATES AND [sequence] USES THEREOF” (Mythic Therapeutics, Inc., priority 2022, published 2024).
“Also recorded” adds a separate entry of the source. Non-standard residues stand in square brackets, D forms with d. Residues, ends and D or L forms follow the SMILES beside them. *: point of attachment. Dolaproine = CO[C@@H]([C@@H]1CCCN1)[C@@H](C)C(=O)O; Dil = CC[C@H](C)[C@H](NC)[C@@H](CC(=O)O)OC; X1 = C[C@@H](N*)[C@@H](O)c1ccccc1; NMeV = CN[C@H](C(=O)O)C(C)C

Legend:
EBC-1 cells [1] = assay: Cell cycle arrest assay; assay type: cell-based, human; conditions: 10 nM, 24 hours
Method: Cell Cycle Arrest Assay. Briefly, EBC-1 cells were cultured in standard culture media (Eagle's minimum essential medium+10% fetal bovine serum) and conditions recommended by the vendor. Cells were plated at a density of 2×10^4 cells per well and incubated at 37° C. for 24 hours. […] Plates were incubated for 24 hours at 37° C. At the end of the culture period, test articles were removed from the plate. Cells were trypsinized, washed, and fixed in 70% ethanol for 30 minutes. Cells were washed, stained with propidium iodide staining using a cell cycle analysis kit (Abcam), and assessed by flow cytometry.

EBC-1 cells [2] = assay: ADCC effector function with PBMCs; assay type: cell-based, human; conditions: PBMCs from all donors, vs IgG1 isotype control
[3] = system: phosphorylation of ERK1/2 and Akt1 in NCI-H441 cells; assay: Cell signaling assay (ELISA); assay type: cell-based, human; conditions: 10 μg/mL, 30 minutes
Method: Cell Signaling Assay. Briefly: NCI-H441 cells were cultured in standard culture media (RPMI-1640 Medium+10% fetal bovine serum) using conditions recommended by the vendor. For the cell signaling assay, NCI-H441 cells were seeded in 6-well plates at 300,000 cells per well in culture media. The next day, the cells were washed with serum-free medium twice and then replenished with 3 mL RPMI+0.2% fetal bovine serum.
The following day, cells were treated with 50 ng/ml HGF or 10 μg/mL of test articles and incubated for 30 minutes at 37° C. Following the 30-minute stimulation, the treatment medium was aspirated, the cells were washed 2 times in an excess volume of ice-cold phosphate buffered saline and collected by cell scraping on ice in 250 μL ice-cold lysis buffer per well and transferred to pre-chilled tubes. […] Lysates were thawed on ice for 1 hour with occasional vortexing, and protein concentrations were measured using the BCA protein assay according to the manufacturer's instructions. Lysates were diluted in lysis buffer to final concentration 0.5 mg/mL, and 100 μL of each sample was assessed using commercially available ELISA kits to detect total ERK1/2 and Akt1 and their phosphorylated forms. ELISAs were performed and analyzed according to the manufacturer's instructions. […]

EBC-1 cells [4] = assay: ADCP effector function; assay type: cell-based, human; conditions: vs IgG1 isotype control
NCI-H441 cells = assay: Cell proliferation assay (CellTiter-Glo); assay type: cell-based, human; conditions: 10 nM, 4 days, serum starved
EBC-1 cells [5] = assay: Complement dependent cytotoxic assay; assay type: cell-based; conditions: 30% human complement
Method: Complement Dependent Cytotoxic Assay. EBC-1 cells were incubated with serially diluted test articles: Q397-noV205C or non-binding antibody. For the technical control, Raji cells, which expresses CD20 on the cell surface, were incubated with serially diluted test articles: anti-CD20 (research grade recombinant anti-CD20 rituximab, catalog number A2009) or non-binding antibody (human IgG1 isotype control antibody, catalog number BE0297). Briefly, EBC-1 and Raji cells were added to a 96-well U-bottom plate at a density of 2.5×10^4 cells/well. Serially diluted test articles were added to the plate. The starting concentration of all test articles was 100 nM. A 3-fold dilution was performed for 9 concentration points and added to the test plate in duplicates. The plate was then incubated for 30 minutes at 37° C. At the end of the culture period, either heat inactivated or pooled human complement sera at a final concentration of 30% diluted in culture media (RPMI) was added to the plate. The plate was then incubated at 37 °C for two hours and cell lysis was assessed using CellTiter-Glo.

[6] = molecular target: recombinant cynomolgus monkey cMET (cynomolgus monkey, UniProt A0A2K5UM36 25-932); assay: BLI (Octet), antibody captured on AHC sensor, recombinant cynomolgus monkey cMET as analyte, pH 7.4
recombinant human cMET = recombinant human cMET (human, UniProt P08581 25-932, limits assumed); assay: BLI (Octet), antibody captured on AHC sensor, recombinant human cMET as analyte, pH 7.4; BLI, recombinant human cMET as analyte, pH 7.4
mouse cMET = mouse cMET (mouse, UniProt P16056 25-931, limits assumed); assay: ELISA or BLI (the filing does not say which)
rat cMET = rat cMET (rat, UniProt P97523 25-935, limits assumed); assay: ELISA or BLI (the filing does not say which)
[7] = molecular target: human cMET on cMET+ human cancer cells (human, UniProt P08581 25-1390); assay: cell-based or functional assay
Sequence of human cMET on cMET+ human cancer cells (P08581 25-1390): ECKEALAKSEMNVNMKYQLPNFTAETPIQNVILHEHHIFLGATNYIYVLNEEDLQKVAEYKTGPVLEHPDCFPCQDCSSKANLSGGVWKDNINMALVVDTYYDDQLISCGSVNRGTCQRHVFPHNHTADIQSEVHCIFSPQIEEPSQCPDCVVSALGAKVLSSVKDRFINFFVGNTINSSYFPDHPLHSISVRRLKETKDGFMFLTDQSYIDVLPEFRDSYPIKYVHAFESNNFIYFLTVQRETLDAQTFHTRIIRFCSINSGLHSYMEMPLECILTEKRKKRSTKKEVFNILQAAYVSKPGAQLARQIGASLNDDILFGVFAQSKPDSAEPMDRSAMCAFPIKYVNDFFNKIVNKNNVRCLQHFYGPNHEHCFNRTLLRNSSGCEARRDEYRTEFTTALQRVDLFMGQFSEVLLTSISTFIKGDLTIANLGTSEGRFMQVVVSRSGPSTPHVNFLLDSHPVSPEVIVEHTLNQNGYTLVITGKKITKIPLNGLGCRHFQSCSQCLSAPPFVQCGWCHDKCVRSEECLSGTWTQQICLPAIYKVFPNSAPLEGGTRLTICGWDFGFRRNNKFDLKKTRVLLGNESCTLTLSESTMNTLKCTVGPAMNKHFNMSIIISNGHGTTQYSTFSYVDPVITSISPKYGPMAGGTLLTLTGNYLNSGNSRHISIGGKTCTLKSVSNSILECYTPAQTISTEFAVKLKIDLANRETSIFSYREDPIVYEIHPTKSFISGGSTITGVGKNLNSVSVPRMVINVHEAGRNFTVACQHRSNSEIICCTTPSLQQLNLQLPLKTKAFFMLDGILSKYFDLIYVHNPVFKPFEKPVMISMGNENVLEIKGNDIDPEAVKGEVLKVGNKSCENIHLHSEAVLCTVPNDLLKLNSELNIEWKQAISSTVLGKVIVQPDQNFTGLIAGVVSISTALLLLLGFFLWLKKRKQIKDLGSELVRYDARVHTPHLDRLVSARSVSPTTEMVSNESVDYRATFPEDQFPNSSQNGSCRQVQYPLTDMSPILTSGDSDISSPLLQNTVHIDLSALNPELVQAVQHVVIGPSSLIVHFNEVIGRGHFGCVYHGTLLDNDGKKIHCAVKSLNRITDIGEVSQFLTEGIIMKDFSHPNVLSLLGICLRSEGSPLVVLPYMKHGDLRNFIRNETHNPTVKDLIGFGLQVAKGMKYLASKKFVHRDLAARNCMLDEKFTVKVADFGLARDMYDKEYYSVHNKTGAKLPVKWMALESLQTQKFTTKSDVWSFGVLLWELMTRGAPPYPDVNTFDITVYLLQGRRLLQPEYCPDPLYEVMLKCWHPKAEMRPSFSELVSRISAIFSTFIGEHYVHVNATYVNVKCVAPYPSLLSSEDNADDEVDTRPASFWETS

Sequence of rat cMET (P97523 25-935 limits assumed): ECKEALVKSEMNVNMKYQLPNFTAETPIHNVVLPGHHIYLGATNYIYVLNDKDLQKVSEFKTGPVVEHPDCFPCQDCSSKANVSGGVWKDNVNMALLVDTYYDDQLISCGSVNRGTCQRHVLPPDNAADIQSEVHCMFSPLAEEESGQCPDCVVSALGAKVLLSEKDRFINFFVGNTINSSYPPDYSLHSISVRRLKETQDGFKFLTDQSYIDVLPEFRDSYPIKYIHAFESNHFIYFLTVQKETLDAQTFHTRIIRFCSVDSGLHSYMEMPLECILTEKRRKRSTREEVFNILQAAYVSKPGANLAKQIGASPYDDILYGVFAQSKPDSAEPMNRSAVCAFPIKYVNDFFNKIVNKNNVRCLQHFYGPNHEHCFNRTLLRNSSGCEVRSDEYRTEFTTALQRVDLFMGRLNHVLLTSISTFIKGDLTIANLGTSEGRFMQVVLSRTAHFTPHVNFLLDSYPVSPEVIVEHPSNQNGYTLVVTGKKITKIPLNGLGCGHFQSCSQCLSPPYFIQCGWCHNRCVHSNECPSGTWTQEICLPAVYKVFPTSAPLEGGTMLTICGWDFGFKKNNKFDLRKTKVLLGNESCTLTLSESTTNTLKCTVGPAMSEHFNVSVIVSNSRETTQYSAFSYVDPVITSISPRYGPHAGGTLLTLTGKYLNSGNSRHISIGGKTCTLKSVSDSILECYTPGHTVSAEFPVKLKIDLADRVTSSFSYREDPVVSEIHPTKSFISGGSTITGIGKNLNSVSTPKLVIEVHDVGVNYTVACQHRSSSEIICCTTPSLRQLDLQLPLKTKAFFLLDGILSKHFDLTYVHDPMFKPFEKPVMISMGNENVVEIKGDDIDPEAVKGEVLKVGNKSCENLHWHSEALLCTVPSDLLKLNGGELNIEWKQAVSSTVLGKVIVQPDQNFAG
Sequence of mouse cMET (P16056 25-931 limits assumed): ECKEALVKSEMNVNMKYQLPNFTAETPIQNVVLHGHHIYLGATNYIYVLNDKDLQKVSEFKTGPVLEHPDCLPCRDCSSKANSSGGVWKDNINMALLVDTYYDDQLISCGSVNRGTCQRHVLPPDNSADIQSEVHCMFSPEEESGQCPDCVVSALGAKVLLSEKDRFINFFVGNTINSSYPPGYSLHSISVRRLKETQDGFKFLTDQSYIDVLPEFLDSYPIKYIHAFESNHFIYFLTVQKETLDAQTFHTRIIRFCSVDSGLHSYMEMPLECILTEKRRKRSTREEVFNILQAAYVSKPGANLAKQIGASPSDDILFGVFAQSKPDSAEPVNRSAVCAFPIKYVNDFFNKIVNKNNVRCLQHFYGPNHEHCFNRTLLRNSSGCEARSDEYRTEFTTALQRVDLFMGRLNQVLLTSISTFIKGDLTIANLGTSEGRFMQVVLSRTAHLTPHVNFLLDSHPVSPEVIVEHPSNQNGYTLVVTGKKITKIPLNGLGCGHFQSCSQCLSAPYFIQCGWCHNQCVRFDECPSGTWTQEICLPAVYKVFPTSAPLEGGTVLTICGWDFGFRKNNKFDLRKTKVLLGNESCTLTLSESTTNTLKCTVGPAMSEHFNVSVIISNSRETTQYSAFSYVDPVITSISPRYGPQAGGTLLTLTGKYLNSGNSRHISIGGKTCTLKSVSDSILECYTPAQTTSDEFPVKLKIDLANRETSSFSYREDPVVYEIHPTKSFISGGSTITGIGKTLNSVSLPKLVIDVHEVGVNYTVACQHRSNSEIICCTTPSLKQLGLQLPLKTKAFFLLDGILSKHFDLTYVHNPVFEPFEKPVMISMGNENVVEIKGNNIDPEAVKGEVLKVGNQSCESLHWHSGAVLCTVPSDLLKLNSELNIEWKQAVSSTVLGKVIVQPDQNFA
Sequence of recombinant cynomolgus monkey cMET (A0A2K5UM36 entry or part of it limits assumed): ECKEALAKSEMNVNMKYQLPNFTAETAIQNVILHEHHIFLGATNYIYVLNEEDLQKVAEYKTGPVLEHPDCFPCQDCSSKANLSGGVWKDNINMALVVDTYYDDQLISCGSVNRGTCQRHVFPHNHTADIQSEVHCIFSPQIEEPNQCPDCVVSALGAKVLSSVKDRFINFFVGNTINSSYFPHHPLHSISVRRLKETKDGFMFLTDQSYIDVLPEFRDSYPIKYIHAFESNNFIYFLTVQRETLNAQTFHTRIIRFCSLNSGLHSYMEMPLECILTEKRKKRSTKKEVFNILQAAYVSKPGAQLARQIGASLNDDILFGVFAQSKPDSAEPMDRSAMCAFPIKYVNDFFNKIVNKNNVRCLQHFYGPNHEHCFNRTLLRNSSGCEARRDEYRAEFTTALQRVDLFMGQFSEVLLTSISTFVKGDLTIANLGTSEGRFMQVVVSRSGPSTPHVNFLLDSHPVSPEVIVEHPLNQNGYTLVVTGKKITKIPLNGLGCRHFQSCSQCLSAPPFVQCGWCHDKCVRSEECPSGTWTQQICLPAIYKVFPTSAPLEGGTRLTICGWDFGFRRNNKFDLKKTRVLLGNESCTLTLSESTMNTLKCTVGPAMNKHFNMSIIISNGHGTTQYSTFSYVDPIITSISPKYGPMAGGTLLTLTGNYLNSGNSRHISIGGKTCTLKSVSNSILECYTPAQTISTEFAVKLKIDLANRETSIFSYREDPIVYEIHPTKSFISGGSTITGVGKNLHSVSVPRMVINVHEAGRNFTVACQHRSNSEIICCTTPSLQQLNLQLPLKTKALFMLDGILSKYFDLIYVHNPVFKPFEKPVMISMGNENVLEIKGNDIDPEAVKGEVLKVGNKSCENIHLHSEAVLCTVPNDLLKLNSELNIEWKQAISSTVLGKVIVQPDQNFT
Sequence of recombinant human cMET (P08581 25-932 limits assumed): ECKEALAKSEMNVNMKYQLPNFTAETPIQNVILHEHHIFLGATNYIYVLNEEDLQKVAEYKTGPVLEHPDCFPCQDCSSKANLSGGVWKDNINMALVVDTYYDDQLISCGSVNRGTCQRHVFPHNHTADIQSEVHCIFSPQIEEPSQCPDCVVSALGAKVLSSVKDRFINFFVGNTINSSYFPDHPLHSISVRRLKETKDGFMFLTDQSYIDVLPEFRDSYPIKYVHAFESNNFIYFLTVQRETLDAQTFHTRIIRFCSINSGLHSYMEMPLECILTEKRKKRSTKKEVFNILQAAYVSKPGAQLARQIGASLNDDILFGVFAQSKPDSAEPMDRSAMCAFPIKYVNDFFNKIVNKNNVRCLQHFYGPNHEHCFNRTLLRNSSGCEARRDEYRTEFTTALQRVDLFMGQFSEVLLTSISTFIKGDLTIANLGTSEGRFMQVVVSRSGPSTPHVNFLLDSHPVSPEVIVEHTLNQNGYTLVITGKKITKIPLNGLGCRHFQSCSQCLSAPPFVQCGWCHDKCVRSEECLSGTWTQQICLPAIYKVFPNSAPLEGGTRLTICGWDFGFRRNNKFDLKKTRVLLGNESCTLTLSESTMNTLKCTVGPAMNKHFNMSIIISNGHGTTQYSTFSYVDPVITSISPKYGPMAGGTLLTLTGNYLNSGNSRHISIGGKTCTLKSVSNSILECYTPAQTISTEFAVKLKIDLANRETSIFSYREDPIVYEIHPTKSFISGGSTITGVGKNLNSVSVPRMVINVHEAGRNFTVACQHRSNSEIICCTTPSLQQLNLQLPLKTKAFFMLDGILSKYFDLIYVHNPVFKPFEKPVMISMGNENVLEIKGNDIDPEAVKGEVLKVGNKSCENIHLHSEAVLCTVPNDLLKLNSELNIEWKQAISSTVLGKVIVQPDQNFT

With `CC[C@H](C)[C@@H]([C@@H](CC(=O)N1CCC[C@H]1[C@H](OC)[C@@H](C)C(=O)N[C@H](C)[C@@H](O)c1ccccc1)OC)N(C)C(=O)[C@@H](NC(=O)[C@@H](NC)C(C)C)C(C)C` [MMAE, monomethyl auristatin E] (H-[NMeV]V[Dil][Dolaproine]-X1) the “percentage of cells in G2-M phase” value (EBC-1 cells [1]) was 68.6%.

“Q397-noV205C: Anti-cMET antibody of MYTX-011 without the V205C substitution; SEQ ID NO: 75 and SEQ ID NO: 81” was tested, and the ADCC activity (EBC-1 cells [2]) was “minimal to no; also recorded: Minimal ADCC activity”, the “phosphorylation of ERK1/2 or Akt1” value [3] was “minimal phosphorylation” and the ADCP activity (EBC-1 cells [4]) was “minimal to no; also recorded: no ADCP activity”. For the same molecule, the “proliferation of cMET+ NCI-H441 cells” value (NCI-H441 cells) was “did not increase” and the “CDC activity (EBC-1 cell lysis)” value (EBC-1 cells [5]) was “minimal to no; also recorded: did not induce EBC-1 cell lysis”.

B1: MYTX-011 mAb (antibody, V domains shown)
VH: QVQLVQSGAEVKKPGASVKVSCKASGYTFTDYYMHWVRQAPGQGLEWMGRVNPNRRGTTYNQKFEGRVTMTTDTSTSTAYMELRSLRSDDTAVYYCARANWLDYWGQGTTVTVSS
VL: DIQMTQSPSSLSASVGDRVTITCSVSSSVSSIHLHWYQQKPGKAPKLLIYHTSNLASGVPSRFSGSGSGTDFTLTISSLQPEDFATYYCQVYSGYPLTFGGGTKVEIKR
notes: also called Q397
B1 was tested, and the Kd [6] was 9.44 nM, the Kd (recombinant human cMET) was 4 nM and the binding result (mouse cMET) was “no binding”. The binding result (rat cMET) was “no binding” and the “uptake of pHrodo-conjugated mAb in NCI-H1975 cells by live cell imaging, at 24 hours, over the parent mAb” value [7] was 3 fold.

B2: MYTX-011 (antibody, IgG1, V domains shown)
VH: QVQLVQSGAEVKKPGASVKVSCKASGYTFTDYYMHWVRQAPGQGLEWMGRVNPNRRGTTYNQKFEGRVTMTTDTSTSTAYMELRSLRSDDTAVYYCARANWLDYWGQGTTVTVSS
VL: DIQMTQSPSSLSASVGDRVTITCSVSSSVSSIHLHWYQQKPGKAPKLLIYHTSNLASGVPSRFSGSGSGTDFTLTISSLQPEDFATYYCQVYSGYPLTFGGGTKVEIKR
modifications: vcMMAE (mc-vc-PAB-MMAE) linked to the engineered cysteine at position 98 of the light chain constant domain ("V205C"); DAR 2
notes: Antibody drug conjugate: humanized triple hinge IgG1 kappa antibody Q397 conjugated site-specifically to vcMMAE, drug to antibody ratio 2; also called anti-cMET pH-ADC; pH-ADC
B2: no binding (mouse cMET); no binding (rat cMET).
